Data taken from patent US20230348616A1 (MIE UNIVERSITY, published 2023).

What was measured:
[1] = target: T1, HLA-A*0201/β2-microglobulin/NY-ESO peptide complex (human, biotinylated with E. coli biotin ligase at the added recognition sequence (biotinylated form used in the ELISA)); test: SPR (Biacore T200), scFv captured by anti-His antibody, HLA/NY-ESO as analyte, single cycle kinetics
T1 construct: also called HLA/NY-ESO; HLA-A2/NY-ESO
Experimental: With the use of Biacore T200, the anti-HLA/NY-ESO scFv was captured as a ligand to the immobilized anti-His antibody, and the antigen was assayed as an analyte. As the antigen, HLA/NY-ESO prepared in 1)-1 was used. The anti-His antibody (His Capture kit, Cytiva) was immobilized on Sensor Chip CM5 (Cytiva) in accordance with the instructions of the kit. The anti-HLA/NY-ESO scFv constructs diluted to 0.5 μg/ml in HBS-EP+(Cytiva) to be evaluated were brought into contact therewith at 10 μl/min for 60 seconds for immobilization. Thereafter, the samples were added to the HLA/NY-ESO analytes diluted to various levels with HBS-EP+ at a flow rate of 30 μl/min for 120 seconds and dissociation was assayed for 600 seconds.

[2] = target: T2, HLA-A2/NY-ESO peptide complex presented on cells (human); test: flow cytometry, CD3e knockout T2 cells pulsed with 50 µM peptide, antibody at 100 nM, PE anti-human IgG; gMFI standardized to the HLA/peptide amount; DMSO-only cells 1.15
T2 construct: whole, on cells; also called HLA/NY-ESO; T2 cells supplemented with the NY-ESO peptide
Experimental: (§1) The cells were washed 2 times in PBS containing 5% FBS, PE conjugated F(ab′)2 Fragment Anti-Human IgG (Jackson Immuno Research Laboratories) diluted with PBS containing 5% FBS was added at 25 μl/well, and the resultant was allowed to stand at 4° C. for 30 minutes. The cells were washed 2 times in PBS containing 5% FBS, immobilized with Mildform 10 N (FUJIFILM Wako Pure Chemical Corporation) overnight, and resuspended in PBS containing 5% FBS. […] The cells were washed 2 times in PBS containing 5% FBS, immobilized with Mildform 10 N (FUJIFILM Wako Pure Chemical Corporation) overnight, and resuspended in PBS containing 5% FBS. The cell suspensions were subjected to detection using a flow cytometer (CantoII, Becton Dickinson). […] The standardized gMFI indicating the binding affinity of each Fc-conjugated anti-HLA-A2/NY-ESO-anti-CD3 bispecific molecule standardized with the amount of the HLA/peptide complex on the CD3e knockout T2 cells was determined in accordance with the following equation.

1F = target: T3, 1F (human); test: as above
T3 construct: cell surface; also called HLA-A2 / point-mutant NY-ESO peptide 1F complex on CD3e knockout T2 cells
Experimental: as §1

gp100 [3] = target: T4, gp100 (human); test: as above
T4 construct: cell surface; unrelated control peptide; also called HLA-A2 / gp100 peptide complex on CD3e knockout T2 cells
Experimental: as §1

[4] = target: T2, HLA-A2/NY-ESO peptide complex presented …; test: cell-based or functional assay
[5] = target: T5, HLA-A2 / homologous peptide DOLPP1 complex on T2 cells (human); test: flow cytometry, CD3e knockout T2 cells pulsed with 50 µM peptide, antibody at 100 nM, PE anti-human IgG; gMFI standardized to the HLA/peptide amount; DMSO-only cells 1.19
T5 construct: whole, on cells; also called T2 cells supplemented with homologous peptide DOLPP1
Text: (§2) The cells were washed 2 times in PBS containing 5% FBS, immobilized with Mildform 10 N (FUJIFILM Wako Pure Chemical Corporation) overnight, and resuspended in PBS containing 5% FBS. The cell suspensions were subjected to detection using a flow cytometer (CantoII, Becton Dickinson). […] The standardized gMFI indicating the binding affinity of each Fc-conjugated anti-HLA-A2/NY-ESO-anti-CD3 bispecific molecule standardized with the amount of the HLA/peptide complex on the CD3e knockout T2 cells was determined in accordance with the following equation.
(§3) The standardized gMFI indicating the binding affinity of each Fc-conjugated anti-HLA-A2/NY-ESO-anti-CD3 bispecific molecule standardized with the amount of the HLA/peptide complex on the CD3e knockout T2 cells was determined in accordance with the following equation.

[6] = target: T2, HLA-A2/NY-ESO peptide complex presented …; test: as above
Text: as §2, §3

[7] = target: T6, HLA-A2 / homologous peptide CD163 complex on T2 cells (human); test: as above
T6 construct: whole, on cells; also called T2 cells supplemented with homologous peptide CD163
Text: as §2, §3

[8] = target: T7, HLA-A2 / homologous peptide IL20RB complex on T2 cells (human); test: as above
T7 construct: whole, on cells; also called T2 cells supplemented with homologous peptide IL20RB
Text: as §2, §3

gp100 [9] = target: T4, gp100; test: as above
Text: as §2, §3

[10] = target: T8, HLA-A2 / homologous peptide PRKD2 complex on T2 cells (human); test: as above
T8 construct: whole, on cells; also called T2 cells supplemented with homologous peptide PRKD2
Text: as §2, §3

[11] = target: T9, HLA-A2 / homologous peptide P2RY8 complex on T2 cells (human); test: as above
T9 construct: whole, on cells; also called T2 cells supplemented with homologous peptide P2RY8
Text: as §2, §3

[12] = target: T1, HLA-A*0201/β2-microglobulin/NY-ESO …; test: SPR (Biacore T200), bispecific captured by anti-human IgG (Fc) antibody, HLA/NY-ESO as analyte, single cycle kinetics
Experimental: With the use of Biacore T200, various Fc-conjugated anti-HLA/NY-ESO-anti-CD3 bispecific molecules were captured as ligands to the immobilized anti-human IgG (Fc) antibody, and the antigen was assayed as an analyte. […] The anti-human IgG (Fc) antibody (Human antibody Capture kit, GE Healthcare) was immobilized on Sensor Chip CM5 (GE Healthcare) in accordance with the instructions of the kit. The Fc-conjugated anti-HLA/NY-ESO-anti-CD3 bispecific molecules diluted to 0.5 g/ml in HBS-EP+(GE Healthcare) to be evaluated were brought into contact therewith at 10 μl/min for 60 seconds for immobilization. Thereafter, the samples were added to the HLA/NY-ESO analytes diluted to various levels with HBS-EP+ at a flow rate of 30 μl/min for 120 seconds and dissociation was assayed for 600 seconds.

[13] = target: T2, HLA-A2/NY-ESO peptide complex presented …; test: cell-based or functional assay; remark: listed apart in the source

| Binder | Kd [1] | standardized gMFI [2] | standardized gMFI (1F) | standardized gMFI (gp100 [3]) | EC50 of cytotoxicity on U266B1 cells (51Cr release, human PBMC effectors) [4] | standardized gMFI [5] | standardized gMFI [6] | standardized gMFI [7] | standardized gMFI [8] | standardized gMFI (gp100 [9]) | standardized gMFI [10] | standardized gMFI [11] | Kd [12] | EC50 of cytotoxicity on NCI-H1703 cells (51Cr release, human PBMC effectors) [13] |
| --- | --- | --- | --- | --- | --- | --- | --- | --- | --- | --- | --- | --- | --- | --- |
| NYC-0008 (scFv, Captured by anti-His antibody in SPR; also called scFv of mAb28105P) scFv: GEVQLVESGGGVVQPGGSLRLSCEASGFIFDDYAMHWVRQAPGKGLEWVSLISGDGDIIYYADSVKGRFTISRDNSKNSLYLQMNSLIIEDTALYYCAKDWVFGVVMTHYWYFGLDVWGQGTTVTVSSGGGGSGGGGSGGGGSDIQMTQSPSSLSASEGDRVTITCRASQSISTYLNWYQQKPGKAPKLLIYGASSLQSGVPSRFSGSGSGTDFTLTISSLQPEDFATYYCQQSYSTPPITFGQGTKVEIKGAAAGAGGDYKDDDDKGAAAHHHHHH | 7.9 nM | – | – | – | – | – | – | – | – | – | – | – | – | – |
| NYZ-1010 (bispecific antibody, human IgG1, lambda, L234A L235A) chain 1: not shown chain 2: not shown light: NFMLTQPSSVSGVPGQRVTISCTGNTGNIGSNYVNWYQQLPGTAPKLLIYRDDKRPSGVPDRFSGSKSGTSASLAITGFQAEDEADYYCQSYSSGFIFGGGTKLTVLGQPKAAPSVTLFPPSSEELQANKATLVCLISDFYPGAVTVAWKADSSPVKAGVETTTPSKQSNNKYAASSYLSLTPEQWKSHRSYSCQVTHEGSTVEKTVAPTECS | – | 43.3 | 0.86 | 0.53 | 0.96 nM | 0.7 | 44.4 | 0.67 | 0.88 | 0.54 | 0.54 | 0.95 | 1.9 nM | 2.56 nM |
